Experimental data reported in publication PMC4869865 (Structure (London, England : 1993), 2010).
Where two headings read alike, the source gives them in different places.

How the values were obtained:
Experiment in all cases: native MS
native MS [1] = target: the molecule itself
δδ′ subcomplex = δδ′ subcomplex (E. coli, UniProt P28630 1-343; P28631 1-334)
native MS [2] = target: the molecule itself; remark: listed apart in the source

binding result (δδ′ subcomplex): binds
B1: γ subunit (DnaX) of the E. coli clamp loader (natural protein, UniProt P06710-2 1-431, looked up)
chain: MSYQVLARKWRPQTFADVVGQEHVLTALANGLSLGRIHHAYLFSGTRGVGKTSIARLLAKGLNCETGITATPCGVCDNCREIEQGRFVDLIEIDAASRTKVEDTRDLLDNVQYAPARGRFKVYLIDEVHMLSRHSFNALLKTLEEPPEHVKFLLATTDPQKLPVTILSRCLQFHLKALDVEQIRHQLEHILNEEHIAHEPRALQLLARAAEGSLRDALSLTDQAIASGDGQVSTQAVSAMLGTLDDDQALSLVEAMVEANGERVMALINEAAARGIEWEALLVEMLGLLHRIAMVQLSPAALGNDMAAIELRMRELARTIPPTDIQLYYQTLLIGRKELPYAPDRRMGVEMTLLRALAFHPRMPLPEPEVPRQSFAPVAPTAVMTPTQVPPQPQSAPQQAPTVPLPETTSQVLAARQQLQRVQGATKAKKE
stoichiometry N (native MS [1]): 3
stoichiometry N (native MS [2]): 4
